Experimental findings from the supplement of paper PMC9170038 are described below.

The series concerns MS2 coat protein. Kind of series: apparent KD of MS2 coat protein; designed switch direction (-1 OFF switch, 1 ON switch): 1; higher = weaker reporter binding. The method, boiled down:
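The reported apparent KD is a per-design median over clusters, from curve fits of normalised cluster fluorescence. Protein titrations used SNAP-549-labelled MS2 coat protein, doubled from 0.7 or 1.5 nM to 3 µM, in Tris-HCl pH 7.5 buffer with KCl, MgCl2, BSA, DTT, tRNA and Tween-20, with no input, 200 uM small-molecule ligand, or an oligonucleotide input. The RNA switches were transcribed on Illumina chips by stalled E. coli RNA polymerase.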

Where [1] appears, read: input ligand: microRNA oligo, concentration not stated.
The mark [2] stands for this setting: Eterna round: R95, input ligand: FMN 200 uM.
The mark [3] stands for this setting: Eterna round: R95, input ligand: microRNA oligo, concentration not stated.
[4] abbreviates: Eterna round: R95, input ligand: none.

In the case of “GGUGCAAUUAACGCCUACAUGAGGAUCACCCAUGUAUGUAGGCAGGAUAUCGUUUGCAAAGCAAACGAGAAGGGCUAUAGUACC [Mat - Same State NG 3 - JL Mod - D43] (Eterna round: R96, puzzle: Same State NG 3)”, the “apparent KD of MS2 coat protein” value by setting is: (input ligand: FMN 200 uM) 66.9 nM; under setting [1], 256 nM; (input ligand: none) 188 nM.

For the sequence “GGUGCGAAUAAAGCCUACAUGAGGAUCACCCAUGUAUGUAGGCAGGAUAUCGUAUGCAAAGCAUACGAGAAGGGCUGUCGCACC [Mat - Same State NG 3 - JL Mod - D47] (Eterna round: R96, puzzle: Same State NG 3)”, the “apparent KD of MS2 coat protein” value came to 30.1 nM (input ligand: FMN 200 uM), 56.9 nM under setting [1] and 85.8 nM (input ligand: none).

With “GGUGGGUUACUACCAACACAUGAGGAUCACCCAUGUUUUGGGAAGGAUAUGGUACCUAUUUGGUACCAGAAGGUCCAGUUGGUG [salish99_SSNG3_r04_703] (Eterna round: R96, puzzle: Same State NG 3)”, the “apparent KD of MS2 coat protein” value (input ligand: FMN 200 uM) was 49.8 nM, the “apparent KD of MS2 coat protein” value under setting [1] amounted to 79.8 nM and the “apparent KD of MS2 coat protein” value (input ligand: none) came out at 125 nM.

Turning to “GGUUUAGUCAGGUGCAGUUGCACCUGAAAACAUGAGGAUCACCCAUGUUUGGGACAAGCUUUGCUCCUCGUCUUGCA [Orinen] (puzzle: Sensor for hsa-mir-208a)”, the “apparent KD of MS2 coat protein” value by setting is: under setting [2], 341 nM; under setting [3], 70.6 nM; under setting [4], 545 nM.

For the sequence “GUAAAACAUGAGGAUCACCCAUGUAAUAAUAUGGGAGGAUAUGCGAAUUUAAUUAUUUAAGCAGAAGGCCUAAAUG [Mat - Same State 1 - D99] (puzzle: Same State 1)”, the “apparent KD of MS2 coat protein” value by setting is: under setting [2], 21.2 nM; under setting [3], 172 nM; under setting [4], 149 nM.

Take “GUAAUAAUGUAAGGAUAUACAUGAGGAUUUCUCGUAGAAGGUACAAGACAUGAGGAUCACCCAUGUGUCGCUCAGAAGAGCGUA [Mat - Same State NG 1 - JL mod - D16] (Eterna round: R96, puzzle: Same State NG 1)”: the “apparent KD of MS2 coat protein” value was determined as 279 nM (input ligand: FMN 200 uM), 158 nM under setting [1] and 463 nM (input ligand: none).

In the case of “GUAAUCGUUAUAGGAUAUCAUGAGGAUUACCCAUGAGAAGGGUGAUCCCGAUCCAUAUUCAGAAAAUGAAUGUGGAUAGAUUGC [Omei NG1 A] (Eterna round: R96, puzzle: Same State NG 1)”, the “apparent KD of MS2 coat protein” value is 46.8 nM (input ligand: FMN 200 uM), 20.6 nM under setting [1] and 55.4 nM (input ligand: none).

In the case of “GUACAGAUCAGAGGAUAUCACGUCGAUUAGACGUGAGAAGGCUGAUCACACAUGAAUAUUAGUACAUGAGGAUCACCCAUGUAC [SSNG1/15-A2] (Eterna round: R96, puzzle: Same State NG 1)”, the “apparent KD of MS2 coat protein” value was 14 nM (input ligand: FMN 200 uM), 12.5 nM under setting [1] and 16.7 nM (input ligand: none).

“GUAGCAUACCGAGGAUAUUCAAACCGGAAACGGACAUGAGGAUCACCCAUGUGGCGAAAGCCUUGGGAGAAGGCGGAAUGCUAC [Xeonanis - 20 Mod76] (Eterna round: R96, puzzle: Same State NG 2)”: the “apparent KD of MS2 coat protein” value was found to be 6.08 nM (input ligand: FMN 200 uM), 21.7 nM under setting [1] and 19.1 nM (input ligand: none).

With “GUAGCAUACCGAGGAUAUUCAUAUUAUACAUGAGGAUCACCCAUGUUAGGCCGAUUACGGCCUUGGGAGAAGGCGGAAUGCUAC [Xeonanis - 20 Mod20] (Eterna round: R96, puzzle: Same State NG 2)”, the “apparent KD of MS2 coat protein” value is, setting by setting: (input ligand: FMN 200 uM) 21.8 nM; under setting [1], 53.3 nM; (input ligand: none) 75 nM.

With “GUGCUCGUGUAAGGAUAUGCAGCCGUUUCGGCUGCAGAAGGUACUAUAAUACAUGAGGAUCACCCAUGUCUCUUUUGUUUGGUG [salish99_SSNG1_r04_907] (Eterna round: R96, puzzle: Same State NG 1)”, the “apparent KD of MS2 coat protein” value reads like this: (input ligand: FMN 200 uM) 234 nM; under setting [1], 111 nM; (input ligand: none) 222 nM.

With “GUGCUCGUGUGAGGAUAUGCCGCCGUUUCGGCUGCAGAAGGUGCUACGUUACAUGAGGAUCACCCAUGUCUCUGUUGUUUCGUG [salish99_SSNG1_r04_943] (Eterna round: R96, puzzle: Same State NG 1)”, the “apparent KD of MS2 coat protein” value under setting [1] was determined as 17.9 nM.

As to “GUGGAGAAUUAAGGAUAUCGAGUCAAGAUGUUAAACAUGAGGAUCACCCAUGUGGGUUGCGGUAUCGAGAAGGUAAAUUACGGG [salish99_SSNG2_r04_504] (Eterna round: R96, puzzle: Same State NG 2)”, the “apparent KD of MS2 coat protein” value is 28.3 nM (input ligand: FMN 200 uM), 25.1 nM under setting [1] and 34.1 nM (input ligand: none).

“GUGGAGAAUUAAGGAUAUUGAAUACAUAUGUUUAACAUGAGGAUCACCCAUGUGGGUUGCGGUAUCGAGAAGGUAAAUUACUGG [salish99_SSNG2_r04_033] (Eterna round: R96, puzzle: Same State NG 2)”: the “apparent KD of MS2 coat protein” value runs as follows: (input ligand: FMN 200 uM) 126 nM; under setting [1], 74.3 nM; (input ligand: none) 110 nM.

As to “GUGGAGGGUUGAGGAUAUUGAUUACAUAUGUUUAACAUGAGGAUCACCCAUGUGGGUUGCGGUUUCGAGAAGGUAGGUUGCUGG [salish99_SSNG2_r04_041] (Eterna round: R96, puzzle: Same State NG 2)”, the “apparent KD of MS2 coat protein” value by setting is: (input ligand: FMN 200 uM) 196 nM; under setting [1], 79.5 nM; (input ligand: none) 132 nM.

“GUGGCGGGUUGAGGAUAUUGGUUGCCGCUGUUUUACAUGAGGAUCACCCAUGUGGGUUGCGGUUUCGAGAAGGGAGGUUGCUGG [salish99_SSNG2_r04_055] (Eterna round: R96, puzzle: Same State NG 2)”: the “apparent KD of MS2 coat protein” value stood at 14.2 nM (input ligand: FMN 200 uM), 11.7 nM under setting [1] and 17.6 nM (input ligand: none).

As for “GUGGCGGGUUGAGGAUAUUGGUUGCCUCUGUUUUACAUGAGGAUCACCCAUGUGGGUUGCGGUUUCGAGAAGGGAGGUUGCUGG [salish99_SSNG2_r04_054] (Eterna round: R96, puzzle: Same State NG 2)”, the “apparent KD of MS2 coat protein” value is, setting by setting: (input ligand: FMN 200 uM) 323 nM; under setting [1], 420 nM; (input ligand: none) 399 nM.

Turning to “GUGGUCAGACAUGAGGAUCACCCAUGUGGAAUAAAUAACGACUAGGAUAUAUAAUAUAGGAUAUAAUAGAAGGAGUGAUUGGUG (Eterna round: R96, puzzle: Same State NG 3)”, the “apparent KD of MS2 coat protein” value amounted to 72.3 nM (input ligand: FMN 200 uM), 49.5 nM under setting [1] and 58.8 nM (input ligand: none).

Consider “GUGGUCAGACAUGAGGAUCACCCAUGUGGAAUAAAUAACGGACAGGAUAUUGAAUAUAGGAUAUACAAGAAGGGUUGAUUGGUG (Eterna round: R96, puzzle: Same State NG 3)”, for which the “apparent KD of MS2 coat protein” value reads like this: (input ligand: FMN 200 uM) 83.6 nM; under setting [1], 47.7 nM; (input ligand: none) 73.9 nM.

Consider “GUGGUCAGACAUGAGGAUCACCCAUGUGGAAUAAAUAAGGAAGAGGAUAUCGAAUAUAGGAUAUACGAGAAGGUUUGGUUGGUG (Eterna round: R96, puzzle: Same State NG 3)”, for which the “apparent KD of MS2 coat protein” value was 117 nM (input ligand: FMN 200 uM), 77.5 nM under setting [1] and 94.6 nM (input ligand: none).

“GUGGUCAGACAUGAGGAUCACCCAUGUGGAAUAAAUAAGGGUUAGGAUAUCGAAUAUAGGAUAUACGAGAAGGGAUGGUUGGUG (Eterna round: R96, puzzle: Same State NG 3)”: the “apparent KD of MS2 coat protein” value runs as follows: (input ligand: FMN 200 uM) 135 nM; under setting [1], 95.3 nM; (input ligand: none) 109 nM.

Take “GUGGUCAGACAUGAGGAUCACCCAUGUGGAAUAAAUAAGGUUUAGGAUAUGGAAUAUAGGAUAUACCAGAAGGAAGGGUUGGUG (Eterna round: R96, puzzle: Same State NG 3)”: under setting [1], the “apparent KD of MS2 coat protein” value amounted to 95.2 nM.

As to “GUGGUCCUCACAGGAUAUCAGCGGCCUUCACGCUGAGAAGGGUGACUGGGCUACAAGGCUAUAGACAUGAGGAUCACCCAUGUA [Direbe] (Eterna round: R96, puzzle: Same State NG 1)”, the “apparent KD of MS2 coat protein” value runs as follows: (input ligand: FMN 200 uM) 194 nM; under setting [1], 110 nM; (input ligand: none) 194 nM.

As to “GUUAAACAUGAGGAUCACCCAUGUCAAUGUAGUCGAGGAUAUGGGCAGCUAUGAGGCGUACUAGAAGGCGAUGAGU [Mat - Same State 1 - Mod of JL - D14] (puzzle: Same State 1)”, the “apparent KD of MS2 coat protein” value is 38.6 nM under setting [2], 133 nM under setting [3] and 150 nM under setting [4].

For “GUUAAACAUGAGGAUCACCCAUGUCAAUGUAGUCGAGGAUAUGGGUAGCUAUGAGGCGUACUAGAAGGCGAGGAGU [Mat - Same State 1 - Mod of JL - D16] (puzzle: Same State 1)”, the “apparent KD of MS2 coat protein” value reads like this: under setting [2], 194 nM; under setting [3], 57.1 nM; under setting [4], 164 nM.

For “GUUACAUGAGGAUCACCCAUGUAUGUGUGGGAGUAAGUGUCUUAGGAUAUCUAGUAUUCAAUUUAAGAGAAGGAAGAUUGUUGU [JMF's solution 58] (Eterna round: R96, puzzle: Same State NG 3)”, the “apparent KD of MS2 coat protein” value (input ligand: FMN 200 uM) was 109 nM, the “apparent KD of MS2 coat protein” value under setting [1] is 64.2 nM and the “apparent KD of MS2 coat protein” value (input ligand: none) stood at 93.9 nM.

With “GUUACAUGAGGAUCACCCAUGUAUGUGUGGGAGUAAGUGUCUUAGGAUAUCUAGUAUUUAAUUAAAGAGAAGGAAGAUUGUUGU [JMF's solution 66] (Eterna round: R96, puzzle: Same State NG 3)”, the “apparent KD of MS2 coat protein” value amounted to 126 nM (input ligand: FMN 200 uM), 74.6 nM under setting [1] and 116 nM (input ligand: none).
